Results on 4 substances are retold here after patent US20240069033A1, “METHOD FOR SCREENING FOR CANDIDATE MOLECULE CAPABLE OF FORMING COMPLEX IN CONJUNCTION WITH PLURALITY OF TARGET MOLECULES” (Chugai Seiyaku Kabushiki Kaisha, priority 2020, published 2024).

Assay [1] deals with T1, splitNanoluc1-8 (Oplophorus gracilirostris, UniProt Q9GV45, A31E/A60N/A81I/D135N/F58L/F95D/G42A/G62A/G78A/G94A/G98A/H120P/I103V/I117V/I134L/K70R/L54V/L73R/L99Q/M102E/N171T/P142E/Q151K/Q38E/Q45L/V71I/Y165I).
T1 construct: made in house
T1 sequence (Q9GV45 other isoform, or with tags, fused parts or gaps with the stated changes): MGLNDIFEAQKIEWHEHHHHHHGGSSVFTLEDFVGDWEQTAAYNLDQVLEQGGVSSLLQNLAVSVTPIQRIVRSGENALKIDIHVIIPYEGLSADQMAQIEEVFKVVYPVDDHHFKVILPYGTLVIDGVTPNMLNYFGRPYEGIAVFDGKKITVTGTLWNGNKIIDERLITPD
As to the kind of experiment: Complementation assay of split Nanoluc using mRNA display (pull-down with biotinylated splitNanoluc1-8, qPCR). It counts as binding. The conditions noted are these: for Recovered nucleic acid amount (molecules): 33 nM Display molecule + 1 μM biotinylated splitNanoluc1-8, room temperature 1 hour, streptavidin pull-down, TEV elution, qPCR; for Recovery rate (%): apparent recovery rate corrected with display efficiency; for Apparent recovery rate (%): recovered/input nucleic acid amount. The protocol: Thus, each binding ability of splitNanoluc-9 (SEQ ID NO: 66), splitNanoluc-10 (SEQ ID NO: 67), and splitNanoluc9-10 fusion peptide (SEQ ID NO: 65) to splitNanoluc1-8 (SEQ ID NO: 85) was evaluated.
Display molecules in which mRNA and a peptide are linked were prepared, and the recovery rate with biotinylated splitNanoluc1-8 was examined.
(In qPCR the cycle at which signal appears reflects the starting amount.)

In assay [2] the test system is anti-ubiquitin antibodies (Mouse IgG1 monoclonal antibody; clone name FK2). As to the kind of experiment: Complementation assay of splitUbiquitin using mRNA display (anti-ubiquitin antibody beads, qPCR). Type of assay: binding. The text has this: As described above, screening a library for a candidate molecule capable of forming a complex with a plurality of target molecules requires a system that suppresses the recovery rate of a test molecule that forms a complex with only one target molecule. […] Ubiquitin I13A variants were used in the experiment. In this Example, the ubiquitin N-terminal fragment to which a GS linker is attached at the C-terminus is referred to as splitUb(N), the ubiquitin C-terminal fragment to which a GS linker is attached at the C-terminus is referred to as splitUb(C), and the protein in which splitUb(N) and splitUb(C) are linked by a GSGS linker and to which a GS linker is attached at the C-terminus is referred to as splitUb(N-C).
To simultaneously evaluate the interactions of the ubiquitin N-terminal fragment and the C-terminal fragment when they are independent, the conditions of mixing the display molecule of splitUb(N) and the display molecule of splitUb(C) at 1: 1 were reacted in the same way.

No end group written: not given here.

Regarding “splitNanoluc9-10: mRNA Display molecule of Nanoluc 9th and 10th strands linked by GS linker, with TEV sequence (SEQ ID NO: 65) (MGSMLFRVTINSGGGSGGGGSGVSGWRLFKKISGSGSGSGSENLYFQGKK; also: mRNA display conjugate)”, in assay [1], the “Recovered nucleic acid amount (molecules)” value was found to be 3.45E+09 molecules, the “Recovery rate (%)” value was determined as 33.155% and the “Apparent recovery rate (%)” value turned out to be 12.632%.

Take “splitUb (N): mRNA Display molecule of ubiquitin (I13A) N-terminal fragment with GS linker (SEQ ID NO: 45) (MMQIFVKTLTGKTATLEVEPSDTIENVKAKIQDKEGIPGSGSGSGSKK; also: mRNA display linkage)”: in assay [2] (anti-ubiquitin antibody (FK2) magnetic beads, room temperature 1 hour, qPCR), the “Recovered nucleic acid amount (molecules)” value turned out to be 1.63E+10 molecules. Further, the “Recovery rate (%)” value in assay [2] (apparent recovery rate corrected with display efficiency) came to 1.040%. In addition, the “Apparent recovery rate (%)” value in assay [2] (recovered/input nucleic acid amount) is on record as 0.931%.

Turning to “splitNanoluc-10: mRNA Display molecule of Nanoluc 10th strand with GS linker and TEV sequence (SEQ ID NO: 67) (MVSGWRLFKKISGSGSGSGSENLYFQGKK; also: mRNA display conjugate)”, in assay [1], the “Recovered nucleic acid amount (molecules)” value is 5.04E+06 molecules, the “Recovery rate (%)” value worked out at 0.016% and the “Apparent recovery rate (%)” value was 0.011%.

For “splitNanoluc-9: mRNA Display molecule of Nanoluc 9th strand with GS linker and TEV sequence (SEQ ID NO: 66) (MGSMLFRVTINSGSGSGSGSENLYFQGKK; also: mRNA display conjugate)”, in assay [1], the “Recovered nucleic acid amount (molecules)” value was determined as 2.53E+06 molecules, the “Recovery rate (%)” value stood at 0.049% and the “Apparent recovery rate (%)” value is listed as 0.008%.
